Positions count from the first letter of the chain named. In names and notes the source's numbering stands.
What was measured:
[1] = target: T1, RPS23 20mer K18A
T1 chain: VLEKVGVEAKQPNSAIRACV

[2] = target: T2, RPS23 20mer G06A
T2 chain: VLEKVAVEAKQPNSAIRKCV

[3] = target: RPS23 peptide (peptide fragment of the RPS23 protein)
[4] = target: T3, RPS23 20mer P12A
T3 chain: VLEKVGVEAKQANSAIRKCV

[5] = target: T4, RPS23 20mer Q11A
T4 chain: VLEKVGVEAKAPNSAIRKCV

[6] = target: T5, RPS23 20mer K04A
T5 chain: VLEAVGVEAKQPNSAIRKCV

[7] = target: T6, S. Pombe RPS23 peptide
T6 chain: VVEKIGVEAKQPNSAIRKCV

[8] = target: T7, RPS23 20mer K10A
T7 chain: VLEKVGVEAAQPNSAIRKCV

[9] = target: RPS23 20mer
[10] = target: histone fragment peptides
[11] = target: T8, RPS23 20mer P12I
T8 chain: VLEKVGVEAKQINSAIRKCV

[12] = target: T9, RPS23 20mer S14A
T9 chain: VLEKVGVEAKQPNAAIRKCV

[13] = target: E. Coli S12 peptide
[14] = target: T10, S. Cerevisiae RPS23 peptide
T10 chain: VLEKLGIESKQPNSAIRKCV

[15] = target: T11, HIF-1α C-terminal oxygen dependent degradation domain (CODD) peptide, Q16665
T11 chain: DLDLEMLAPYIPMDDDFQL

[16] = target: T12, RPS23 20mer N13A
T12 chain: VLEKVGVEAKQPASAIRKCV

[17] = target: T13, RPS23 20mer C19A
T13 chain: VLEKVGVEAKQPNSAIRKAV

[18] = target: T14, RPS23 20mer V05A
T14 chain: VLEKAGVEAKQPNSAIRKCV

[19] = target: T15, HIF-1α C-terminal transcriptional activation domain (CTAD) peptide, Q16665
T15 chain: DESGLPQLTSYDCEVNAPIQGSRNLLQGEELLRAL

[20] = target: T16, RPS23 20mer E08A
T16 chain: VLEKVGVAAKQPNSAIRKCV

[21] = target: T17, RPS23 20mer I16A
T17 chain: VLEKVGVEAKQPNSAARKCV

[22] = target: T18, RPS23 20mer V07A
T18 chain: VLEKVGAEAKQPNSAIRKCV

[23] = target: T19, RPS23 16mer
T19 chain: EKVGVEAKQPNSAIRK

[24] = target: T20, HIF-1α N-terminal oxygen dependent degradation domain (NODD) peptide, Q16665
T20 chain: DALTLLAPAAGDTIISLDF

B1: recombinant full-length human OGFOD1 (protein)
chain: MNGKRPAEPGPARVGKKGKKEVMAEFSDAVTEETLKKQVAEAWSRRTPFSHEVIVMDMDPFLHCVIPNFIQSQDFLEGLQKELMNLDFHEKYNDLYKFQQSDDLKKRREPHISTLRKILFEDFRSWLSDISKIDLESTIDMSCAKYEFTDALLCHDDELEGRRIAFILYLVPPWDRSMGGTLDLYSIDEHFQPKQIVKSLIPSWNKLVFFEVSPVSFHQVSEVLSEEKSRLSISGWFHGPSLTRPPNYFEPPIPRSPHIPQDHEILYDWINPTYLDMDYQVQIQEEFEESSEILLKEFLKPEKFTKVCEALEHGHVEWSSRGPPNKRFYEKAEESKLPEILKECMKLFRSEALFLLLSNFTGLKLHFLAPSEEDEMNDKKEAETTDITEEGTSHSPPEPENNQMAISNNSQQSNEQTDPEPEENETKKESSVPMCQGELRHWKTGHYTLIHDHSKAEFALDLILYCGCEGWEPEYGGFTSYIAKGEDEELLTVNPESNSLALVYRDRETLKFVKHINHRSLEQKKTFPNRTGFWDFSFIYYE
Hydroxylation [1]: ++
Hydroxylation [2]: ++
2OG turnover assay [3]: Activity is also stimulated significantly in the presence of a peptide fragment of the RPS23 protein.
MALDI mass spectrometry, +16 mass shift [3]: a clear +16 mass shift was observed upon incubation of RPS23 peptide with wild-type OGFOD1
Hydroxylation [4]: -
Hydroxylation [5]: ++
Hydroxylation [6]: ++
Hydroxylation [7]: ++
Hydroxylation [8]: ++
Hydroxylation [9]: ++
amino acid analysis of the enzymatic product [9]: The results clearly demonstrate the presence of trans-3-hydroxyproline in the enzymatic product
MALDI-TOF, demethylation [10]: Neither did we find that OGFOD1 catalyzed N^ε-methyl-lysine or arginyl demethylation of histone fragment peptides
Hydroxylation [11]: -
Hydroxylation [12]: +
Hydroxylation [13]: -
Hydroxylation [14]: ++
Hydroxylation (MALDI assay) [15]: No hydroxylation of the PHD2 C-terminal oxygen-dependent degradation domain (CODD) substrate by OGFOD1 was observed under the same assay conditions.
MALDI-TOF, +16 Da mass shift characteristic of hydroxylation [15]: None of these potential substrates displayed evidence of a +16 Da mass shift characteristic of hydroxylation.
Hydroxylation [16]: +
Hydroxylation [17]: ++
Hydroxylation [18]: ++
MALDI-TOF, +16 Da mass shift characteristic of hydroxylation [19]: None of these potential substrates displayed evidence of a +16 Da mass shift characteristic of hydroxylation.
Hydroxylation [20]: ++
Hydroxylation [21]: ++
Hydroxylation [22]: ++
Hydroxylation [23]: +
MALDI-TOF, +16 Da mass shift characteristic of hydroxylation [24]: None of these potential substrates displayed evidence of a +16 Da mass shift characteristic of hydroxylation.

B2: H155A mutant of full-length human OGFOD1 (protein)
chain: MGSSHHHHHHSSGLVPRGSHMASMNGKRPAEPGPARVGKKGKKEVMAEFSDAVTEETLKKQVAEAWSRRTPFSHEVIVMDMDPFLHCVIPNFIQSQDFLEGLQKELMNLDFHEKYNDLYKFQQSDDLKKRREPHISTLRKILFEDFRSWLSDISKIDLESTIDMSCAKYEFTDALLCADDELEGRRIAFILYLVPPWDRSMGGTLDLYSIDEHFQPKQIVKSLIPSWNKLVFFEVSPVSFHQVSEVLSEEKSRLSISGWFHGPSLTRPPNYFEPPIPRSPHIPQDHEILYDWINPTYLDMDYQVQIQEEFEESSEILLKEFLKPEKFTKVCEALEHGHVEWSSRGPPNKRFYEKAEESKLPEILKECMKLFRSEALFLLLSNFTGLKLHFLAPSEEDEMNDKKEAETTDITEEGTSHSPPEPENNQMAISNNSQQSNEQTDPEPEENETKKESSVPMCQGELRHWKTGHYTLIHDHSKAEFALDLILYCGCEGWEPEYGGFTSYIAKGEDEELLTVNPESNSLALVYRDRETLKFVKHINHRSLEQKKTFPNRTGFWDFSFIYYE
MALDI mass spectrometry, +16 mass shift [3]: no such change was detectable with the H155A or D157A variants under standard assay conditions

B3: D157A mutant of full-length human OGFOD1 (protein)
chain: B2 chain with D180A
MALDI mass spectrometry, +16 mass shift [3]: no such change was detectable with the H155A or D157A variants under standard assay conditions
